Measured values as given in PMC3567247 (Biochemistry, 2012).
Read-outs that look alike come from different tables or passages of the source.

Tests used:
Assay in all cases: SPR
Lymphotoxin-α [1] = biological target: T1, Lymphotoxin-α (UniProt P01374 35-205)
T1 sequence (looked up): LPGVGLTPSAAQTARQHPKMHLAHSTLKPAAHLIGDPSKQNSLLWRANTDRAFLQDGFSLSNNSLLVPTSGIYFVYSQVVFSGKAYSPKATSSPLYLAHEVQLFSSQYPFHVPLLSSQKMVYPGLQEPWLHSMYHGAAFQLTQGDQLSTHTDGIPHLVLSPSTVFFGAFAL

Lymphotoxin-α [2] = biological target: T1, Lymphotoxin-α; remark: listed apart in the source
Lymphotoxin-α [3] = biological target: T1, Lymphotoxin-α; remark: listed apart in the source

B1: Soluble TNFR1 extracellular domain, residues 40-201 (receptor, human, UniProt P19438 40-201, looked up)
chain: RDSVCPQGKYIHPQNNSICCTKCHKGTYLYNDCPGPGQDTDCRECESGSFTASENHLRHCLSCSKCRKEMGQVEISSCTVDRDTVCGCRKNQYRHYWSENLFQCFNCSLCLNGTVHLSCQEKQNTVCTCHAGFFLRENECVSCSNCKKSLECTKLCLPQIEN
- Kd (Lymphotoxin-α [1]): 57 nM
- Kd (Lymphotoxin-α [2]): 50 ± 10 nM
- Kd (Lymphotoxin-α [3]): 46 nM
- koff (Lymphotoxin-α [3]): 0.0092 s⁻¹
- kon (Lymphotoxin-α [3]): 170000 M⁻¹ s⁻¹
